Measurements reported in patent US20160137740A1 (AstraZeneca / MedImmune, published 2016).

Columns and labels:
Human OX40 [1] = target: T1, Human OX40 (human, UniProt P43489 29-277); test: cell-based or functional assay
T1 sequence: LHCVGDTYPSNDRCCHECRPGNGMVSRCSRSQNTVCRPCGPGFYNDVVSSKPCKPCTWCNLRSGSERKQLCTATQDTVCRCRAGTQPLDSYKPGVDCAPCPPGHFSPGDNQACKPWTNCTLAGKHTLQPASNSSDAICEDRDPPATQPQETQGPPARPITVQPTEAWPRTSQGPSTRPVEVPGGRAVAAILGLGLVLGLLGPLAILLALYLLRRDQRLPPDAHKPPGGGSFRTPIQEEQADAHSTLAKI

[2] = target: cyno/rhesus OX40 expressed on Jurkat NFκB-luciferase reporter clone B2 (cynomolgus/rhesus monkey); test: cell-based or functional assay
Human OX40 [3] = target: T1, Human OX40; test: cell-based or functional assay; remark: listed apart in the source
Human OX40 [4] = target: T1, Human OX40; test: flow cytometry, equilibrium binding to human OX40-overexpressing Jurkat NFkB-luciferase clone 64 cells; mean of 3 experiments (StdErr)
Protocol: (§1) Human OX40-overexpressing Jurkat NFκB-luciferase clone 64 cells were cultured in complete RPMI+10% FBS prior to binding experiments, without the need for activation.
(§2) OX40mAb24 (10 μg/mL) or 9B12 (10 μg/mL) was diluted over a 17 point 2-fold dilution series. OX40mAb24 was added to 100,000 cells (activated primary CD4⁺ T cells or human OX40-overexpressing Jurkat NFkB-luciferase clone 64 cells) per well and incubated for one hour at 4° C. For background binding subtraction, cells were incubated in the presence of secondary antibody alone. […] Following secondary antibody incubation, cells were washed and suspended in 100 μL FACS buffer for flow cytometry analysis on a BD LSRII flow cytometer as described below.

Human OX40 [5] = target: T1, Human OX40; test: flow cytometry on human OX40-overexpressing Jurkat clone 64 cells; 50% receptor occupancy calculated from Kd
Protocol: as §1, §2

Rhesus monkey OX40 = target: T2, Rhesus monkey OX40 (rhesus monkey); test: flow cytometry, equilibrium binding to activated primary rhesus CD4+ T cells; mean of 2 experiments (StdErr)
T2 construct: also called rhesus macaque OX40

Human OX40 [6] = target: T1, Human OX40; test: cell-based or functional assay; remark: listed apart in the source
[7] = target: T3, Recombinant human TNFRSF14 (HVEM) (human, UniProt Q92956 39-202, limits assumed); test: ELISA, plate coated with a dilution series of the recombinant TNFRSF protein [panel B]
T3 construct: Plate-adsorbed antigen of the ELISA
T3 sequence (looked up): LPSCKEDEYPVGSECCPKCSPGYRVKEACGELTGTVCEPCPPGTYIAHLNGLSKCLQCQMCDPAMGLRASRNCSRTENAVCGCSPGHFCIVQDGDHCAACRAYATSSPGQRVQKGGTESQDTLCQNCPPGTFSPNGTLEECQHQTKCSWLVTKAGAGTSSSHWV
Protocol: (§3) An eight point, two-fold dilution series of each recombinant human TNFRSF protein was prepared after dilution of stock proteins to 5 μg/mL in PBS. Subsequently, 50 μL of each antigen dilution was transferred in duplicate to wells of a Nunc 96-well MaxiSorp flat bottom plate, and incubated overnight at 4° C. to adsorb proteins to the plate. Afterwards, plates were washed three times with PBS in a BioTek® plate washer to remove unbound protein. Anti OX40 mAb29, 9B12, and control antibodies were diluted in PBS to a final concentration of 10 μg/mL, and 50 μL of mAb were added to each well and incubated at room temperature for one hour to bind mAb to plate-bound protein. Thereafter, wells were washed with PBS/Tween-20 0.1% (volume/volume) using a BioTek® plate washer. HRP conjugated goat anti-human or goat anti-mouse secondary antibodies at 10 μg/mL was added to each well and incubated at room temperature for 1 hour. After three washes in PBS/Tween-20 0.1%, 50 μL of TMB substrate was added to each well and incubated at room temperature for 5 minutes to develop the colorimetric product. Reactions were stopped by adding 50 μL of 0.5 molar H₂SO₄ to wells, and plates read immediately at 450 nm using an Envision C plate reader for detection of the colorimetric product.

[8] = target: T4, Recombinant human TNFRSF6 (FAS) (human, UniProt P25445 26-173); test: as above
T4 construct: Plate-adsorbed antigen of the ELISA
T4 sequence (looked up): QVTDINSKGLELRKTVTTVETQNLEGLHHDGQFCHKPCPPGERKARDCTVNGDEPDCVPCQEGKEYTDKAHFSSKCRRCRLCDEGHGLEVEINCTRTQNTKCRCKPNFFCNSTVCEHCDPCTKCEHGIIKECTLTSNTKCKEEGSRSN
Protocol: as §3

Human OX40 [9] = target: T1, Human OX40; test: cell-based or functional assay; remark: listed apart in the source
Cynomolgus monkey OX40 = target: T5, Cynomolgus monkey OX40 (cynomolgus monkey); test: flow cytometry, equilibrium binding to activated primary cynomolgus CD4+ T cells; mean of 2 experiments (StdErr)
T5 construct: also called cyno OX40
Protocol: Cyno CD4⁺ T cell isolation was performed with a Miltenyi non-human primate kit according to manufacturer's instructions, then CD4⁺ T cells counted on a ViCell counter and suspended at 1×10⁶ per mL in complete medium as described above.
Cyno CD4⁺ T cells (1×10⁶ per mL in complete medium) were incubated for 48 hours in a T75 cell culture flask with 2 μg/mL PHA-L and 20 IU/mL IL-2, to activate T cells and induce OX40 expression. Activated CD4⁺ T cells were removed from the flask and 100,000 cells were transferred to each well of a non-tissue culture treated 96-well round-bottom plate for binding assays and washed with 200 μL FACS buffer. Binding was performed with 10 μg/mL OX40mAb24 or 9B12 serially diluted 4-fold in FACS buffer for an 11-point data curve, or both R347 human IgG1 or mouse IgG1 clone MOPC-21 (negative controls) serially diluted 6-fold for a 3 point data curve. OX40mAb24, 9B12 or control protein was added to CD4⁺ T cells and incubated. […] Following secondary antibody incubation, cells were processed for flow cytometry as described in Section 2.3.

B1: 9B12 (antibody, mouse IgG1, V domains shown)
VH: EVQLQESGPSLVKPSQTLSLTCSVTGDSFTSGYWNWIRKFPGNRLEYMGYISYNGITYHNPSLKSRISITRDTSKNHYYLQLNSVTTEDTATYFCARYRYDYDGGHAMDYWGQGTLVTVSS
VL: DIQMTQTTSSLSASLGDRVTISCRASQDISNYLNWYQQKPDGTVKLLIYYTSKLHSGVPSRFSGSGSRTDYSLTITDLDQEDIATYFCQQGSALPWTFGQGTKVEIKR
notes: mouse IgG1 kappa; also called murine mAb 9B12; mouse anti-human OX40 IgG1κ monoclonal antibody
With B1 the “EC50, IL5 release, donor 651” value (Human OX40 [1]) was 1090 pM, the “EC50, NFκB-luciferase 2-cell assay, rhesus RBC-lysed whole blood + cyno/rhesus OX40 Jurkat clone B2” value [2] was 6.05 nM and the “EC50, NFκB-luciferase 2-cell assay, exp 1, Raji” value (Human OX40 [3]) was 9.28 nM. For the same binder, the “EC50, NFκB-luciferase 2-cell assay, exp 2, CD32A-expressing HEK” value (Human OX40 [3]) was 338 pM, the “EC50, NFκB-luciferase 2-cell assay, exp 3, CD32A-expressing HEK” value (Human OX40 [3]) was 225 pM and the “EC50, NFκB-luciferase 2-cell assay, exp 4, Raji” value (Human OX40 [3]) was 5.04 nM. The “EC50, NFκB-luciferase 2-cell assay, exp 5, CD32B-expressing HEK” value (Human OX40 [3]) was 726 pM, the “EC50, NFκB-luciferase 2-cell assay, exp 6, Raji” value (Human OX40 [3]) was 2700 pM and the “EC50, NFκB-luciferase 2-cell assay, exp 7, CD32B-expressing HEK” value (Human OX40 [3]) was 1770 pM. For the same binder, the “EC50, NFκB-luciferase 2-cell assay, exp 8, CD32B-expressing HEK” value (Human OX40 [3]) was 1340 pM, the “EC50, NFκB-luciferase 2-cell assay, exp 9, Raji” value (Human OX40 [3]) was 3.07 nM and the “EC50, NFκB-luciferase 2-cell assay, exp 10, Raji” value (Human OX40 [3]) was 3.33 nM. The “EC50, NFκB-luciferase 2-cell assay, exp 11, CD32B-expressing HEK” value (Human OX40 [3]) was 2360 pM, the “EC50, NFκB-luciferase 2-cell assay, exp 12, CD45+ cells, NSCLC” value (Human OX40 [3]) was 223 pM and the “EC50, NFκB-luciferase 2-cell assay, exp 15, CD45+ cells, RCC” value (Human OX40 [3]) was 2420 pM. For the same binder, the Kd (Human OX40 [4]) was 0.726 nM, the EC50 (Human OX40 [5]) was 0.726 nM and the Kd (Rhesus monkey OX40) was 0.713 nM. The “EC50, TNFα release, donor 645” value (Human OX40 [6]) was 670 pM, the “EC50, TNFα release, donor 651” value (Human OX40 [6]) was 764 pM and the binding result [7] was “no binding”. The binding result [8] was “no binding”, the “EC50, IL10 release, donor 367” value (Human OX40 [9]) was 198 pM and the “EC50, IL10 release, donor 645” value (Human OX40 [9]) was 1220 pM. The “EC50, IL10 release, donor 651” value (Human OX40 [9]) was 796 pM and the Kd (Cynomolgus monkey OX40) was 1.09 nM.
